{"source": "patent US20090269356", "about": "“Complement Binding Aptamers and Anti-C5 Agents Useful in the Treatment of Ocular Disorders” (published 2009)", "binders": {"B1": {"name": "ARC913 (mixed)", "RNA": "GGGAGAGGAGAGAACGUUCUACCUUGGUUUGGCACAGGCAUACAUACGCAGGGGUCGAUCGAUCGAUCAUCGAUG", "modifications": "dRmY: A,G deoxy; C,U 2'-OMe"}}, "key": {"[1]": {"biological_target": "complement C5 in human serum/blood (Homo sapiens, UniProt P01031)", "sequence (P01031 whole entry)": "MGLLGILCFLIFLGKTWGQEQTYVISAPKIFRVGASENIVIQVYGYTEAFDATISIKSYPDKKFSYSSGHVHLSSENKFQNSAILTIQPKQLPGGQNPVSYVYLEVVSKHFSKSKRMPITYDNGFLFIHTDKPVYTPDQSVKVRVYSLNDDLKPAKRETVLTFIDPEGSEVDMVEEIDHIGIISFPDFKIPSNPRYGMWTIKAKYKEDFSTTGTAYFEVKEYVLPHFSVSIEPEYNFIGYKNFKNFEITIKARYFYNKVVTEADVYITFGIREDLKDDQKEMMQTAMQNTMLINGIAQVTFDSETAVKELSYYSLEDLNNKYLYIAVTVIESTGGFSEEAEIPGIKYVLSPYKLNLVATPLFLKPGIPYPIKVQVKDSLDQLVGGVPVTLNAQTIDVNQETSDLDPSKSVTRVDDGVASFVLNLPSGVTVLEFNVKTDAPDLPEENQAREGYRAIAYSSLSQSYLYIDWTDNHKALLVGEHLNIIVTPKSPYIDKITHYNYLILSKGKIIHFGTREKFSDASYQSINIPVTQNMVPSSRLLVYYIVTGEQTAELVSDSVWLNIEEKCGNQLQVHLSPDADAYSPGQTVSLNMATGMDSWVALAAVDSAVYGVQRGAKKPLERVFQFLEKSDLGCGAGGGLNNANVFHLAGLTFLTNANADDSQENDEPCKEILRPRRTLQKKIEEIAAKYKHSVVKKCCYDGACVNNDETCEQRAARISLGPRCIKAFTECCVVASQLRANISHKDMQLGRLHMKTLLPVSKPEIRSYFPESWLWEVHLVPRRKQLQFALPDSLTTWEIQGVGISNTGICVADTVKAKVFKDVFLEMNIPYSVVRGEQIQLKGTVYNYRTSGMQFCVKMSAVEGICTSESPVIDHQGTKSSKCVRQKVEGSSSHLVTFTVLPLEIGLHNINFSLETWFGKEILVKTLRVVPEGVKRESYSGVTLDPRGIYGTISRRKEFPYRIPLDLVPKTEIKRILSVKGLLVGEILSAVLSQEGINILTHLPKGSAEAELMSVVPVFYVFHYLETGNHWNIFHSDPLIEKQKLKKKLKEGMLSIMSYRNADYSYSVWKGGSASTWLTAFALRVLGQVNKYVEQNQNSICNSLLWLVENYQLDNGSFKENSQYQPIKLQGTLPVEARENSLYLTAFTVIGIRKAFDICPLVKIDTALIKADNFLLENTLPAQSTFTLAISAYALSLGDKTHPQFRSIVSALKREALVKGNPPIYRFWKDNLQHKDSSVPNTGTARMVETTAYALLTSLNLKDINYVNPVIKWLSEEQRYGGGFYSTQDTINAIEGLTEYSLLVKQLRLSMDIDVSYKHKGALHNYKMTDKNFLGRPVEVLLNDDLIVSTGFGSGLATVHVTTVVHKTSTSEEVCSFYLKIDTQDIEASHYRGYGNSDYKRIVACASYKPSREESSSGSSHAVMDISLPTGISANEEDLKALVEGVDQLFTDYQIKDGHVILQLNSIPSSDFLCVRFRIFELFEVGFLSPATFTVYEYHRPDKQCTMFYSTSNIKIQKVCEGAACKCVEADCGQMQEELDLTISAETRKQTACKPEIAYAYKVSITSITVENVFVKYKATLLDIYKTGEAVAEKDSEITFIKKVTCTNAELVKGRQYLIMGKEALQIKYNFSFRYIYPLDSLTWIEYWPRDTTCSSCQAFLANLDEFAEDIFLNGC", "experiment": "inhibition; hemolysis, 0.2% human serum, 25 C", "details": "protein: extract", "method": "Hemolysis Assay: The effect of ARC913 (SEQ ID NO: 75) on the classical pathway of the complement system was analyzed using a hemolysis assay previously described, compared to both ARC186 (SEQ ID NO: 4) (Anti-C5 aptamer, positive control) and unselected dRmY pool (negative control). In the assay of hemolytic inhibition, a solution of 0.2% whole human serum was mixed with antibody-coated sheep erythrocytes (Diamedix EZ Complement CH50 Test, Diamedix Corporation, Miami, Fla.) in the presence of titrated ARC913 (SEQ ID NO: 75). The assay was run in veronal-buffered saline containing calcium, magnesium and 1% gelatin (GVB⁺⁺ complement buffer) and incubated for 1 hr at 25° C. After incubation the samples were centrifuged. The optical density at 415 nm (OD₄₁₅) of the supernatant was read. The inhibition of hemolysis activity is expressed as % hemolysis activity compared to control. The IC₅₀ of the aptamer was calculated to be about 30 nM."}, "[2]": {"biological_target": "complement C5 (full length) (Homo sapiens, UniProt P01031)", "sequence (P01031 whole entry)": "as above", "experiment": "filter; dot blot; 20% plateau", "details": "tags: Quidel / Complement Technologies A120.14 / Advanced Research Technologies", "method": "The selection progress was monitored using a sandwich filter binding (dot blot) assay. The 5′-³²P-labeled pool RNA (trace concentration) was incubated with C5, 1×DPBS plus 0.1 mg/mL tRNA and 0.1 mg/mL salmon sperm DNA, for 30 minutes at room temperature, and then applied to a nitrocellulose and nylon filter sandwich in a dot blot apparatus (Schleicher and Schuell). The percentage of pool RNA bound to the nitrocellulose was calculated and monitored approximately every 3 rounds with a single point screen (+/−300 nM C5). Pool Kd measurements were measured using a titration of protein and the dot blot apparatus as described above.\nSequence Information: 45 clones from each pool were sequenced. R10 full length pool was dominated by one single clone ARC913 (SEQ ID NO: 75) which made up 24% of the pool, 2 sets of duplicates and single sequences made up the remainder. The R10 trypsinized pool contained 8 copies of the same sequence ARC913 (SEQ ID NO: 75), but the pool was dominated by another sequence (AMX221.A7; 46%)."}}, "data": [{"binder": "B1", "values": [{"measurement": "IC50", "setting": "[1]", "value": "~30", "unit": "nM"}, {"measurement": "Kd", "setting": "[2]", "value": "~140", "unit": "nM"}]}]}
